# According to US20090099029:
# T1: Bovine, dephosphorylated, Myelin Basic Protein (MBP), P02687
# T1 chain: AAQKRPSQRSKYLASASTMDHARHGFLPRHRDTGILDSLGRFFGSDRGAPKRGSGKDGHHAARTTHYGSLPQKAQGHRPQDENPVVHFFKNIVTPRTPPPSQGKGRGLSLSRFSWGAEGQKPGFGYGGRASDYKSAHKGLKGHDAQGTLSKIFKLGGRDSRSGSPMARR
# B1: NEK3 (protein)
# chain: MDDYMVLRMIGEGSFGRALLVQHESSNQMFAMKEIRLPKSFSNTQNSRKEAVLLAKMKHPNIVAFKESFEAEGHLYIVMEYCDGGDLMQKIKQQKGKLFPEDMILNWFTQMCLGVNHIHKKRVLHRDIKSKNIFLTQNGKVKLGDFGSARLLSNPMAFACTYVGTPYYVPPEIWENLPYNNKSDIWSLGCILYELCTLKHPFQANSWKNLILKVCQGCISPLPSHYSYELQFLVKQMFKRNPSHRPSATTLLSRGIVARLVQKCLPPEIIMEYGEEVLEEIKNSKHNTPRKKTNPSRIRIALGNEASTVQEEEQDRKGSHTDLESINENLVESALRRVNREEKGNKSVHLRKASSPNLHRRQWEKNVPNTALTALENASILTSSLTAEDDRGGSVIKYSKNTTRKQWLKETPDTLLNILKNADLSLAFQTYTIYRPGSEGFLKGPLSEETEASDSVDGGHDSVILDPERLEPGLDEEDTDFEEEDDNPDWVSELKKRAGWQGLCDR
# B2: EPHA8 (protein)
# chain: KKRHCGYSKAFQDSDEEKMHYQNGQAPPPVFLPLHHPPGKLPEPQFYAEPHTYEEPGRAGRSFTREIEASRIHIEKIIGSGDSGEVCYGRLRVPGQRDVPVAIKALKAGYTERQRRDFLSEASIMGQFDHPNIIRLEGVVTRGRLAMIVTEYMENGSLDTFLRTHDGQFTIMQLVGMLRGVGAGMRYLSDLGYVHRDLAARNVLVDSNLVCKVSDFGLSRVLEDDPDAAYTTTGGKIPIRWTAPEAIAFRTFSSASDVWSFGVVMWEVLAYGERPYWNMTNRDVISSVEEGYRLPAPMGCPHALHQLMLDCWHKDRAQRPRFSQIVSVLDALIRSPESLRATATVSRCPPPAFVRSCFDLRGGSGGGGGLTVGDWLDSIRMGRYRDHFAAGGYSSLGMVLRMNAQDVRALGITLMGHQKKILGSIQTMRAQLTSTQGPRRHL
# B3: MINK1 (protein)
# chain: MGDPAPARSLDDIDLSALRDPAGIFELVEVVGNGTYGQVYKGRHVKTGQLAAIKVMDVTEDEEEEIKQEINMLKKYSHHRNIATYYGAFIKKSPPGNDDQLWLVMEFCGAGSVTDLVKNTKGNALKEDCIAYICREILRGLAHLHAHKVIHRDIKGQNVLLTENAEVKLVDFGVSAQLDRTVGRRNTFIGTPYWMAPEVIACDENPDATYDYRSDIWSLGITAIEMAEGAPPLCDMHPMRALFLIPRNPPPRLKSKKWSKKFIDFIDTCLIKTYLSRPPTEQLLKFPFIRDQPTERQVRIQLKDHIDRSRKKRGEKEETE
# B4: MAPK8(JNK1) (protein)
# chain: MSRSKRDNNFYSVEIGDSTFTVLKRYQNLKPIGSGAQGIVCAAYDAILERNVAIKKLSRPFQNQTHAKRAYRELVLMKCVNHKNIIGLLNVFTPQKSLEEFQDVYIVMELMDANLCQVIQMELDHERMSYLLYQMLCGIKHLHSAGIIHRDLKPSNIVVKSDCTLKILDFGLARTAGTSFMMTPYVVTRYYRAPEVILGMGYKENVDLWSVGCIMGEMVCHKILFPGRDYIDQWNKVIEQLGTPCPEFMKKLQPTVRTYVENRPKYAGYSFEKLFPDVLFPADSEHNKLKASQARDLLSKMLVIDASKRISVDEALQHPYINVWYDPSEAEAPPPKIPDKQLDEREHTIEEWKELIYKEVMDLEERTKNGVIRGQPSPLAQVQQ
# B5: NEK2 (protein)
# chain: MPSRAEDYEVLYTIGTGSYGRCQKIRRKSDGKILVWKELDYGSMTEAEKQMLVSEVNLLRELKHPNIVRYYDRIIDRTNTTLYIVMEYCEGGDLASVITKGTKERQYLDEEFVLRVMTQLTLALKECHRRSDGGHTVLHRDLKPANVFLDGKQNVKLGDFGLARILNHDTSFAKTFVGTPYYMSPEQMNRMSYNEKSDIWSLGCLLYELCALMPPFTAFSQKELAGKIREGKFRRIPYRYSDELNEIITRMLNLKDYHRPSVEEILENPLIADLVADEQRRNLERRGRQLGEPEKSQDSSPVLSELKLKEIQLQERERALKAREERLEQKEQELCVRERLAEDKLARAENLLKNYSLLKERKFLSLASNPELLNLPSSVIKKKVHFSGESKENIMRSENSESQLTSKSKCKDLKKRLHAAQLRAQALSDIEKNYQLKSRQILGMR
# B6: MAPK3(ERK1) (protein)
# chain: MAAAAAQGGGGGEPRRTEGVGPGVPGEVEMVKGQPFDVGPRYTQLQYIGEGAYGMVSSAYDHVRKTRVAIKKISPFEHQTYCQRTLREIQILLRFRHENVIGIRDILRASTLEAMRDVYIVQDLMETDLYKLLKSQQLSNDHICYFLYQILRGLKYIHSANVLHRDLKPSNLLINTTCDLKICDFGLARIADPEHDHTGFLTEYVATRWYRAPEIMLNSKGYTKSIDIWSVGCILAEMLSNRPIFPGKHYLDQLNHILGILGSPSQEDLNCIINMKARNYLQSLPSKTKVAWAKLFPKSDSKALDLLDRMLTFNPNKRITVEEALAHPYLEQYYDPTDEPVAEEPFTFAMELDDLPKERLKELIFQETARFQPGVLEAP
# B7: MAPK13(p38delta) (protein)
# chain: MSLIRKKGFYKQDVNKTAWELPKTYVSPTHVGSGAYGSVCSAIDKRSGEKVAIKKLSRPFQSEIFAKRAYRELLLLKHMQHENVIGLLDVFTPASSLRNFYDFYLVMPFMQTDLQKIMGMEFSEEKIQYLVYQMLKGLKYIHSAGVVHRDLKPGNLAVNEDCELKILDFGLARHADAEMTGYVVTRWYRAPEVILSWMHYNQTVDIWSVGCIMAEMLTGKTLFKGKDYLDQLTQILKVTGVPGTEFVQKLNDKAAKSYIQSLPQTPRKDFTQLFPRASPQAADLLEKMLELDVDKRLTAAQALTHPFFEPFRDPEEETEAQQPFDDSLEHEKLTVDEWKQHIYKEIVNFSPIARKDSRRRSGMKL
# B8: MYLK2 (protein)
# chain: MATENGAVELGIQNPSTDKAPKGPTGERPLAAGKDPGPPDPKKAPDPPTLKKDAKAPASEKGDGTLAQPSTSSQGPKGEGDRGGGPAEGSAGPPAALPQQTATPETSVKKPKAEQGASGSQDPGKPRVGKKAAEGQAAARRGSPAFLHSPSCPAIISSSEKLLAKKPPSEASELTFEGVPMTHSPTDPRPAKAEEGKNILAESQKEVGEKTPGQAGQAKMQGDTSRGIEFQAVPSEKSEVGQALCLTAREEDCFQILDDCPPPPAPFPHRMVELRTGNVSSEFSMNSKEALGGGKFGAVCTCMEKATGLKLAAKVIKKQTPKDKEMVLLEIEVMNQLNHRNLIQLYAAIETPHEIVLFMEYIEGGELFERIVDEDYHLTEVDTMVFVRQICDGILFMHKMRVLHLDLKPENILCVNTTGHLVKIIDFGLARRYNPNEKLKVNFGTPEFLSPEVVNYDQISDKTDMWSMGVITYMLLSGLSPFLGDDDTETLNNVLSGNWYFDEETFEAVSDEAKDFVSNLIVKDQRARMNAAQCLAHPWLNNLAEKAKRCNRRLKSQILLKKYLMKRRWKKNFIAVSAANRFKKISSSGALMALGV
# B9: MAPKAPK3 (protein)
# chain: MDGETAEEQGGPVPPPVAPGGPGLGGAPGGRREPKKYAVTDDYQLSKQVLGLGVNGKVLECFHRRTGQKCALKLLYDSPKARQEVDHHWQASGGPHIVCILDVYENMHHGKRCLLIIMECMEGGELFSRIQERGDQAFTEREAAEIMRDIGTAIQFLHSHNIAHRDVKPENLLYTSKEKDAVLKLTDFGFAKETTQNALQTPCYTPYYVAPEVLGPEKYDKSCDMWSLGVIMYILLCGFPPFYSNTGQAISPGMKRRIRLGQYGFPNPEWSEVSEDAKQLIRLLLKTDPTERLTITQFMNHPWINQSMVVPQTPLHTARVLQEDKDHWDEVKEEMTSALATMRVDYDQVKIKDLKTSNNRLLNKRRKKQAGSSSASQGCNNQ
# B10: MAPK14(p38alpha) (protein)
# chain: MSQERPTFYRQELNKTIWEVPERYQNLSPVGSGAYGSVCAAFDTKTGLRVAVKKLSRPFQSIIHAKRTYRELRLLKHMKHENVIGLLDVFTPARSLEEFNDVYLVTHLMGADLNNIVKCQKLTDDHVQFLIYQILRGLKYIHSADIIHRDLKPSNLAVNEDCELKILDFGLARHTDDEMTGYVATRWYRAPEIMLNWMHYNQTVDIWSVGCIMAELLTGRTLFPGTDHINQLQQIMRLTGTPPAYLINRMPSHEARNYIQSLTQMPKMNFANVFIGANPLAVDLLEKMLVLDSDKRITAAQALAHAYFAQYHDPDDEPVADPYDQSFESRDLLIDEWKSLTYDEVISFVPPPLDQEEMES
# B11: MAPKAPK5(PRAK) (protein)
# chain: MSEESDMDKAIKETSILEEYSINWTQKLGAGISGPVRVCVKKSTQERFALKILLDRPKARNEVRLHMMCATHPNIVQIIEVFANSVQFPHESSPRARLLIVMEMMEGGELFHRISQHRHFTEKQASQVTKQIALALRHCHLLNIAHRDLKPENLLFKDNSLDAPVKLCDFGFAKIDQGDLMTPQFTPYYVAPQVLEAQRRHQKEKSGIIPTSPTPYTYNKSCDLWSLGVIIYVMLCGYPPFYSKHHSRTIPKDMRRKIMTGSFEFPEEEWSQISEMAKDVVRKLLKVKPEERLTIEGVLDHPWLNSTEALDNVLPSAQLMMDKAVVAGIQQAHAEQLANMRIQDLKVSLKPLHSVNNPILRKRKLLGTKPKDSVYIHDHENGAEDSNVALEKLRDVIAQCILPQAGENEDEKLNEVMQEAWKYNRECKLLRDTLQSFSWNGRGFTDKVDRLKLAEIVKQVIEEQTTSHESQ
# B12: PAK1 (protein)
# chain: MSNNGLDIQDKPPAPPMRNTSTMIGAGSKDAGTLNHGSKPLPPNPEEKKKKDRFYRSILPGDKTNKKKEKERPEISLPSDFEHTIHVGFDAVTGEFTGMPEQWARLLQTSNITKSEQKKNPQAVLDVLEFYNSKKTSNSQKYMSFTDKSAEDYNSSNALNVKAVSETPAVPPVSEDEDDDDDDATPPPVIAPRPEHTKSVYTRSVIEPLPVTPTRDVATSPISPTENNTTPPDALTRNTEKQKKKPKMSDEEILEKLRSIVSVGDPKKKYTRFEKIGQGASGTVYTAMDVATGQEVAIKQMNLQQQPKKELIINEILVMRENKNPNIVNYLDSYLVGDELWVVMEYLAGGSLTDVVTETCMDEGQIAAVCRECLQALEFLHSNQVIHRDIKSDNILLGMDGSVKLTDFGFCAQITPEQSKRSTMVGTPYWMAPEVVTRKAYGPKVDIWSLGIMAIEMIEGEPPYLNENPLRALYLIATNGTPELQNPEKLSAIFRDFLNRCLEMDVEKRGSAKELLQHQFLKIAKPLSSLTPLIAAAKEATKNNH
# Molecular target: T1, Bovine, dephosphorylated, Myelin Basic …
row,Protein,MBP Kinase Activity
1,B1,Negative
2,B2,Weak
3,B3,Weak
4,B4,Negative
5,B5,Strong
6,B6,Strong
7,B7,Weak
8,B8,Negative
9,B9,Strong
10,B10,Strong
11,B11,Strong
12,B12,Negative
